The values below come from the RNAGym collection of RNA variant scans (doi:10.7554/elife.90254).

The labels stand for the following.
B1: LINE1-mini (parent)
chain: GGCAGAGCUCAACACAGCGUGGCAAAGUGGCUGUGGCUAGACUGCC

The variants in this data set derive from B1. The data set is described as follows: self-cleavage, relative activity (ratio to wild type); higher = more cleavage; in vitro, sequencing; the parent is a self-cleaving ribozyme.
On to A11G G29U, for which the self-cleavage worked out at 0.03.

As to A11G G29A, the self-cleavage stood at 0.04.

In the case of A11G G29C, the self-cleavage was determined as 0.3. The figure for A12C G35C is 0.03; for A12C G35U it is 0.03; for A12C G35A it is 0.04. To A12C C18G belongs 0.02; to A12C C18A, 0.03.

On to A12C C18U, for which the self-cleavage came out at 0.04. To A12G A16G belongs 0.03; to A12G A16C, 0.06. In the case of A12G A16U, the self-cleavage was determined as 0.05. For A12C G40A, the self-cleavage came out at 0.04.

As to A12C G40U, the self-cleavage worked out at 0.03. Turning to A12C G40C, the self-cleavage is 0.03.

Regarding A11G A26G, the self-cleavage amounted to 0.04. Turning to A11G A26U, the self-cleavage amounted to 0.02. To A11G G36U belongs 0.02; to A11G G36C, 0.01. Take A11G G36A: the self-cleavage is 0.02.

Consider A12C G21A, for which the self-cleavage is 0.02. Turning to A12C G21C, the self-cleavage worked out at 0.03. For the variant A12C G21U, the self-cleavage was determined as 0.03. For A11U A24C, the self-cleavage is 0.15. On to A11U A24U, for which the self-cleavage is 0.21.

Turning to A11U A24G, the self-cleavage turned out to be 0.15. The figure for A12C G29C is 0.01; for A12C G29A it is 0.01; for A12C G29U it is 0.02.

Turning to A11U A16C, the self-cleavage was determined as 0.02.

In the case of A11U A16G, the self-cleavage was 0.04. Regarding A11U A16U, the self-cleavage worked out at 0.03. Take A12G A41C: the self-cleavage stood at 0.02. The figure for A12G A41U is 0.04. Regarding A12G A41G, the self-cleavage came out at 0.03. As to A11U C13U, the self-cleavage is 0.04.

As for A11U C13A, the self-cleavage was 0.02.

Turning to A11U C13G, the self-cleavage worked out at 0.03. To A11G U32A belongs 0.02. To A11G U32G belongs 0.03.

With A11G U32C, the self-cleavage is 0.04. On to A11U G21C, for which the self-cleavage came to 0.12.

For the variant A11U G21A, the self-cleavage was found to be 0.33. To A11U G21U belongs 0.1; to A12C G33C, 0.01. The figure for A12C G33U is 0.02; for A12C G33A it is 0.05. In the case of A11U U38A, the self-cleavage was determined as 0.07. With A11U U38C, the self-cleavage was found to be 0.05. To A11U U38G belongs 0.01. The figure for A11G U34C is 0.03; for A11G U34G it is 0.03. Regarding A11G U34A, the self-cleavage was 0.03. To A11U C15U belongs 0.17; to A11U C15A, 0.03. To A11U C15G belongs 0.02; to A12C G22U, 0.02; to A12C G22A, 0.03.

With A12C G22C, the self-cleavage was found to be 0.02. To A11U C37U belongs 0.01; to A11U C37A, 0.02. For the variant A11U C37G, the self-cleavage is 0.02. A11G G21C: the self-cleavage is 0.02.

Consider A11G G21U, for which the self-cleavage came out at 0.03. With A11G G21A, the self-cleavage was determined as 0.05. To A11U A12C belongs 0.04; to A11U A12U, 0.07. With A11U A12G, the self-cleavage was found to be 0.03. The figure for A12C A39C is 0.03; for A12C A39G it is 0; for A12C A39U it is 0.02.

Turning to A12C C31U, the self-cleavage amounted to 0.02. To A12C C31A belongs 0.03; to A12C C31G, 0.01; to A12C A25U, 0.01.

For A12C A25C, the self-cleavage amounted to 0.03. To A12C A25G belongs 0.02; to A11U C42A, 0.03.

For A11U C42U, the self-cleavage worked out at 0.02. The figure for A11U C42G is 0.02; for A11U C46A it is 0.09.

A11U C46G: the self-cleavage stood at 0.06.

Take A11U C46U: the self-cleavage is 0.12. In the case of A12C A41U, the self-cleavage was 0.03. Turning to A12C A41G, the self-cleavage worked out at 0.03. Take A12C A41C: the self-cleavage amounted to 0.02.

On to A11U G19C, for which the self-cleavage was 0.1. To A11U G19U belongs 0.12. To A11U G19A belongs 0.27; to A11G C37G, 0.03; to A11G C37U, 0.05. Regarding A11G C37A, the self-cleavage was found to be 0.02.

Take A12C C45U: the self-cleavage is 0.03. On to A12C C45A, for which the self-cleavage turned out to be 0.03. With A12C C45G, the self-cleavage stood at 0.07. The figure for A11U G29A is 0.14. The figure for A11U G29C is 0.09; for A11U G29U it is 0.17; for A12C C15U it is 0.03. To A12C C15G belongs 0.03; to A12C C15A, 0.03. Consider A11G G27A, for which the self-cleavage was 0.02. Consider A11G G27U, for which the self-cleavage came out at 0.03. A11G G27C: the self-cleavage was 0.03. Regarding A11G G33A, the self-cleavage came out at 0.03. In the case of A11G G33U, the self-cleavage was 0.03. For the variant A11G G33C, the self-cleavage worked out at 0.03. Regarding A11G U20A, the self-cleavage turned out to be 0.04. Turning to A11G U20C, the self-cleavage was 0.03.

Turning to A11G U20G, the self-cleavage is 0.03.

Turning to A12G A25U, the self-cleavage is 0.03. As to A12G A25G, the self-cleavage came out at 0.03.

Regarding A12G A25C, the self-cleavage was found to be 0.16. Regarding A11G C15U, the self-cleavage turned out to be 0.03.

Consider A11G C15A, for which the self-cleavage came out at 0.02. As to A11G C15G, the self-cleavage was 0.03. A12G A14G: the self-cleavage came out at 0.04.

On to A12G A14U, for which the self-cleavage came to 0.03. To A12G A14C belongs 0.04. Turning to A11U C45G, the self-cleavage turned out to be 0.04. For the variant A11U C45A, the self-cleavage is 0.05. The figure for A11U C45U is 0.23; for A11G C18U it is 0.04; for A11G C18G it is 0.02. A11G C18A: the self-cleavage stood at 0.04.

For A11U G35U, the self-cleavage is 0.02. Take A11U G35A: the self-cleavage is 0.04. To A11U G35C belongs 0.01; to A12G C18A, 0.03; to A12G C18U, 0.04. To A12G C18G belongs 0.04; to A12C C13U, 0.01; to A12C C13A, 0.08. The figure for A12C C13G is 0.04; for A11U A25U it is 0.37. In the case of A11U A25G, the self-cleavage stood at 0.07. In the case of A11U A25C, the self-cleavage was 0.11. For A12C G44U, the self-cleavage worked out at 0.03.

On to A12C G44A, for which the self-cleavage amounted to 0.03. The figure for A12C G44C is 0.05.

With A12C C42G, the self-cleavage was determined as 0.02. The figure for A12C C42A is 0.03; for A12C C42U it is 0.01. To A12C A24C belongs 0.01; to A12C A24G, 0.04. As to A12C A24U, the self-cleavage was determined as 0.03.

Take A12G C15U: the self-cleavage turned out to be 0.03. On to A12G C15G, for which the self-cleavage is 0.03. The figure for A12G C15A is 0.02; for A11U G36U it is 0.03.

With A11U G36C, the self-cleavage stood at 0.03. To A11U G36A belongs 0.02; to A12C U28C, 0.02; to A12C U28A, 0.02. For the variant A12C U28G, the self-cleavage was 0.02. To A12G A26C belongs 0.03; to A12G A26U, 0.03. The figure for A12G A26G is 0.03; for A12C A16U it is 0.01; for A12C A16G it is 0.02. To A12C A16C belongs 0.03; to A12C C37G, 0.02; to A12C C37U, 0.02. Consider A12C C37A, for which the self-cleavage amounted to 0.02.

Turning to A12C U32C, the self-cleavage is 0.05. To A12C U32A belongs 0.03. The figure for A12C U32G is 0.06.
